Laboratory results as given in patent US20260007748A1 (KELONIA THERAPEUTICS, published 2026).

Molecular target: T1, B cell maturation antigen (BCMA) (human, UniProt Q02223 1-184)
T1 construct: BCMA as carried by RPMI-8226 (high BCMA) and Daudi (low BCMA) tumor cells; also called TNFRSF17; tumor necrosis factor receptor superfamily member 17
T1 sequence: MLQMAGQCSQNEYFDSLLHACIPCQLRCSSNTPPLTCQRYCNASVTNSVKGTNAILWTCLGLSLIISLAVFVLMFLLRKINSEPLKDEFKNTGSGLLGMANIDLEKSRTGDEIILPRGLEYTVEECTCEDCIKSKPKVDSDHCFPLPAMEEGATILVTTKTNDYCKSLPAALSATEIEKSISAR
Assay: co-culture of transduced PBMCs with RPMI-8226 (high BCMA) or Daudi (low BCMA) cells; recognition read by IFNγ
Protocol: PBMCs transduced with recombinant lentiviral particles comprising a viral envelope expressing a mutated VSIV-G and a non-viral membrane-bound tropism polypeptide that binds CD3 and a lentiviral vector encoding an MNDU3 promoter operably linked to a polynucleotide encoding a CD8α signal peptide and an anti-BCMA CAR and a WPRE operably linked to the 3′ prime end of the polynucleotide encoding the anti-BCMA CAR (18 anti-BCMA CARs were evaluated) were co-cultured with Daudi cells (low BCMA expression) or RPMI-8226 cells (high BCMA expression) for 24 hours. After 24 hours, IFNγ levels in co-culture supernatant were measured and plotted as a function of % anti-BCMA CAR positive cells in the co-culture.
5×10⁴ PBMCs transduced with recombinant lentiviruses LV 1 to LV 19 were co-cultured with 5×10⁴ high BCMA-expressing tumor cells (RPMI-8226) or 5×10⁴ low BCMA-expressing tumor cells (Daudi) for 24 hours. Anti-BCMA CAR activity was assessed by harvesting co-culture supernatants and measuring IFNγ levels using a Meso Scale Discovery (MSD®) assay. The percentage of anti-BCMA CAR positive cells was plotted against IFNγ levels produced in co-culture. FIG. 2D.

B1: anti-BCMA CAR of recombinant lentivirus LV 9 (SEQ ID NO: 273) (other)
chain: EVQLLESGGGLVQPGGSLRLSCAASGFTFGSEAMSWVRQAPGKERELVSAISGSGEVTYYADSVKGRFTISRDNSKNTLYLQMNSLRAEDTAVYYCQRLVEAKRHWGQGTQVTVSSTTTPAPRPPTPAPTIASQPLSLRPEACRPAAGGAVHTRGLDFACDIYIWAPLAGTCGVLLLSLVITLYCKRGRKKLLYIFKQPFMRPVQTTQEEDGCSCRFPEEEEGGCELRVKFSRSADAPAYQQGQNQLYNELNLGRREEYDVLDKRRGRDPEMGGKPRRKNPQEGLYNELQKDKMAEAYSEIGMKGERRRGKGHDGLYQGLSTATKDTYDALHMQALPPR
notes: Chimeric antigen receptor on transduced human PBMCs: anti-BCMA VHH, CD8α hinge and TM, CD137 costim, CD3ζ; also called LV 9.1 to LV 9.9
  binding result: binds
